One data set has as its target T1, FRET substrate GGGFG.
T1 chain: GGGFG

The next data set addresses T2, FRET substrate GGGLG.
T2 chain: GGGLG

Another data set addresses T3, FRET substrate GGGSG.
T3 chain: GGGSG

The next data set has as its target T4, FRET substrate GGGYG.
T4 chain: GGGYG

For data set [1], the target named is T5, FRET-GGGGG (FRET substrate having pentaglycine between Nma and Lys(Dnp)).
T5 chain: GGGGG

Data set [2] deals with corneocyte-derived insoluble keratin (insoluble corneum fraction from the human neck).
For another data set, the target named is T6, keratin 10.
T6 chain: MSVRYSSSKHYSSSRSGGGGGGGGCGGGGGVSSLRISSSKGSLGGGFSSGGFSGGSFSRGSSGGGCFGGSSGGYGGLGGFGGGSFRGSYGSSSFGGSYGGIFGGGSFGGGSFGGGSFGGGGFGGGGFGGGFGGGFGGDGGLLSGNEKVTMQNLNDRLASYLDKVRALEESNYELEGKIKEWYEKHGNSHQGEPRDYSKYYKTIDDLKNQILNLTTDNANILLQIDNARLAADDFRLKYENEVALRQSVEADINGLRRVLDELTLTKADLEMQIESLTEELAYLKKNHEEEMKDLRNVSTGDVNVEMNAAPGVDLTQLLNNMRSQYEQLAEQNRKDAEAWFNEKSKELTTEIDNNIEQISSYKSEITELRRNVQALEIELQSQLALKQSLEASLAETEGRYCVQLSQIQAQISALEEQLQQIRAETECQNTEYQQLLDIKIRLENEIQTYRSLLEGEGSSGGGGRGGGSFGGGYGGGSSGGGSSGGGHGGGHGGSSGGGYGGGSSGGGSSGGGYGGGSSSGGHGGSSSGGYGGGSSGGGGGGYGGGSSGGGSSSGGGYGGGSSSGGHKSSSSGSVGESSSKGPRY

In data set [3] the target is keratin azure, which uses wool as a raw material (K8500).
The target in data set [4] is keratin solution obtained from human heel corneum.
In data set [5] the target is T7, recombinant loricrin fused with a tag sequence (Recombinant Human Loricrin Protein; Abcam, ab114261).
T7 chain: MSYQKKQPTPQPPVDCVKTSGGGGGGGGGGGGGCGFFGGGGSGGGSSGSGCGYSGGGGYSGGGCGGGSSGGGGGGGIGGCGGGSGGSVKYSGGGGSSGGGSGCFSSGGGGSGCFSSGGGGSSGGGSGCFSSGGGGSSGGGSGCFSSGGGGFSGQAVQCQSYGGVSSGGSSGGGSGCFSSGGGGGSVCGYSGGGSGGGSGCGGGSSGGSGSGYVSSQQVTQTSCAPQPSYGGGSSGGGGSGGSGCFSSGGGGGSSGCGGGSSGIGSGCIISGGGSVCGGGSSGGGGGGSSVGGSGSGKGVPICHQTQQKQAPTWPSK

Here are results for 7 proteins from patent US20210071114.

B1: β-lytic metalloprotease (beta-lytic metallopeptidase; BLP) (protein)
chain: SPNGLLQFPFPRGASWHVGGAHTNTGSGNYPMSSLDMSRGGGWGSNQNGNWVSASAAGSFKRHSSCFAEIVHTGGWSTTYYHLMNIQYNTGANVSMNTAIANPANTQAQALCNGGQSTGPHEHWSLKQNGSFYHLNGTYLSGYRITATGSSYDTNCSRFYLTKNGQNYCYGYYVNPGPN
For the protein B1, the Specific activity (U/mg) was 83 U/mg with FRET substrate GGGFG; 3 U/mg with FRET substrate GGGLG; 231 U/mg in the data set with FRET substrate GGGSG; 74 U/mg with FRET substrate GGGYG; 186 U/mg in data set [1]. Also, the “Degradation of corneocyte-derived insoluble keratin, SDS-PAGE (ruby staining) of the supernatant” value (“Degradation … of the supernatant” for short) in [2] was “A band was detected between the molecular weight marker of 37,000 and the molecular weight marker of 50,000 for all the solutions containing BLP, LasA, and AhP”. Moreover, the “Mass spectrometry of the SDS-PAGE band of the enzyme-treated solution” value with keratin 10 is “the proteins contained in this band region were fragments of keratin 10”. For the same protein, in [3], the “ΔA595 of the supernatant (property of degrading wool keratin)” value (“ΔA595 of the supernatant” for short) is given as “The absorbance of the samples containing Savinase (registered trade name), Alcalase (registered trade name), or proteinase K was increased compared with that of the samples containing BLP, LasA, or AhP”. Further, the “Enzymatic degradation of keratin, SDS-PAGE (CBB staining)” value (“Enzymatic degradation of keratin” for short) in data set [4] was “bands were detected between the molecular weight marker of 37,000 and the molecular weight marker of 50,000”. Besides, in data set [5], the “Loricrin-degrading activity, SDS-PAGE and N-terminus sequencing of the remaining bands” value was “none of the N-terminus amino acid sequences of the bands were the sequence of loricrin, the bands were inferred to be derived from the tag sequence”.

B2: proteinase K (Kanto Chemical Co., Inc., 34076-92) (protein)
chain: AAQTNAPWGLARISSTSPGTSTYYYDESAGQGSCVYVIDTGIEASHPEFEGRAQMVKTYYYSSRDGNGHGTHCAGTVGSRTYGVAKKTQLFGVKVLDDNGSGQYSTIIAGMDFVASDKNNRNCPKGVVASLSLGGGYSSSVNSAAARLQSSGVMVAVAAGNNNADARNYSPASEPSVCTVGASDRYDRRSSFSNYGSVLDIFGPGTSILSTWIGGSTRSISGTSMATPHVAGLAAYLMTLGKTTAASACRYIADTANKGDLSNIPFGTVNLLAYNNYQA
Take B2: in data set [3], the “ΔA595 of the supernatant” value is given as “The absorbance of the samples containing Savinase (registered trade name), Alcalase (registered trade name), or proteinase K was increased compared with that of the samples containing BLP, LasA, or AhP”. In data set [4], the “Enzymatic degradation of keratin” value is “major bands were lost for the solutions containing Savinase (registered trade name), Alcalase (registered trade name), and proteinase K”.

B3: ALE-1 glycylglycine endopeptidase (ALE-1) (protein)
chain: STKVDAPKVEQEAPAKADAPKVEQEAPAKADAPKVEQEAPAKVDAPKVEQEAPAKVDAPKVEQEAPAKADAPKVEQKRTFVREAAQSNHSASWLNNYKKGYGYGPYPLGINGGNHYGVDFFMNVGTPVRAISDGKIVEAGWTNYGGGNEIGLVENDGVHRQWYMHLSKFNVKVGDRVKAGQIIGWSGSTGYSTAPHLHFQRMTNSFSNNTAQDPMPFLKSAGYGSNSTSSSNNNGYKTNKYGTLYKSESASFTANTDIITRLTGPFRSMPQSGVLRKGLTIKYDEVMKQDGHVWVGYNTNSGKRVYLPVRTWNESTGELGPLWGTIK
Take B3: the Specific activity (U/mg) came out at 0 U/mg in the data set with FRET substrate GGGFG; 0 U/mg with FRET substrate GGGLG; 0 U/mg in the data set with FRET substrate GGGSG; 0 U/mg in the data set with FRET substrate GGGYG; 3 U/mg in [1]. Further, in data set [4], the “Enzymatic degradation of keratin” value is “degradation of keratin was not observed for the solutions containing M23B subfamily enzymes ALE-1 and lysostaphin”.

B4: Alcalase (registered trade name) (SIGMA, P4860) (protein)
chain: AQTVPYGIPLIKADKVQAQGFKGANVKVAVLDTGIQASHPDLNVVGGASFVAGEAYNTDGNGHGTHVAGTVAALDNTTGVLGVAPSVSLYAVKVLNSSGSGSYSGIVSGIEWATTNGMDVINMSLGGASGSTAMKQAVDNAYAKGVVVVAAAGNSGSSGNTNTIGYPAKYDSVIAVGAVDSNSNRASFSSVGAELEVMAPGAGVYSTYPTNTYATLNGTSMASPHVAGAAALILSKHPNLSASQVRNRLSSTATYLGSSFYYGKGLINVEAAAQ
As to B4, the “ΔA595 of the supernatant” value in data set [3] is listed as “The absorbance of the samples containing Savinase (registered trade name), Alcalase (registered trade name), or proteinase K was increased compared with that of the samples containing BLP, LasA, or AhP”. For the same protein, the “Enzymatic degradation of keratin” value in [4] is “major bands were lost for the solutions containing Savinase (registered trade name), Alcalase (registered trade name), and proteinase K”.

B5: Aeromonas hydrophila proteinase (AhP) (protein)
chain: AGGQFQLPWRQGYSWKANGAHSHTGSGYPYSSIDVSYDWPGWGGATYTVTAANSGTVTVFSRCQVRVTATNGWATNYYHMSGISVRSGDYVAADTPIGTYASNRNEALCEGGSSTGPHLHFSLLYNGVFQSLQGQRLSSYAVNVGASNYDDNCNRFWLYNQRNGQRYCAWQPLYNNGID
For B5, the Specific activity (U/mg) was 51 U/mg in the data set with FRET substrate GGGFG; 31 U/mg in the data set with FRET substrate GGGLG; 10 U/mg in the data set with FRET substrate GGGSG; 98 U/mg with FRET substrate GGGYG; 53 U/mg in data set [1]. Moreover, the “Degradation … of the supernatant” value in data set [2] was “A band was detected between the molecular weight marker of 37,000 and the molecular weight marker of 50,000 for all the solutions containing BLP, LasA, and AhP”. In the data set with keratin 10, the “Cleavage of keratin 10, concluded from SDS-PAGE bands and the mass spectrometry of the BLP sample” value was “BLP and other M23A subfamily enzymes cleaved the glycine-rich regions at both ends of the amino acid sequence of keratin 10”. For the same protein, in data set [3], the “ΔA595 of the supernatant” value is recorded as “The absorbance of the samples containing Savinase (registered trade name), Alcalase (registered trade name), or proteinase K was increased compared with that of the samples containing BLP, LasA, or AhP”. Moreover, the “Enzymatic degradation of keratin” value in data set [4] is “bands were detected between the molecular weight marker of 37,000 and the molecular weight marker of 50,000”.

B6: Las A protein (LasA or LAS) (protein)
chain: APPSNLMQLPWRQGYSWQPNGAHSNTGSGYPYSSFDASYDWPRWGSATYSVVAAHAGTVRVLSRCQVRVTHPSGWATNYYHMDQIQVSNGQQVSADTKLGVYAGNINTALCEGGSSTGPHLHFSLLYNGAFVSLQGASFGPYRINVGTSNYDNDCRRYYFYNQSAGTTHCAFRPLYNPGLAL
Regarding B6, the Specific activity (U/mg) with FRET substrate GGGFG is 19 U/mg; in the data set with FRET substrate GGGLG, 10 U/mg; in the data set with FRET substrate GGGSG it was 19 U/mg; with FRET substrate GGGYG it was 29 U/mg; in data set [1], 19 U/mg. Also, in data set [2], the “Degradation … of the supernatant” value was “A band was detected between the molecular weight marker of 37,000 and the molecular weight marker of 50,000 for all the solutions containing BLP, LasA, and AhP”. Also, the “Cleavage of keratin 10, concluded from SDS-PAGE bands and the mass spectrometry of the BLP sample” value with keratin 10 was “BLP and other M23A subfamily enzymes cleaved the glycine-rich regions at both ends of the amino acid sequence of keratin 10”. Moreover, in data set [3], the “ΔA595 of the supernatant” value is given as “The absorbance of the samples containing Savinase (registered trade name), Alcalase (registered trade name), or proteinase K was increased compared with that of the samples containing BLP, LasA, or AhP”. Besides, the “Enzymatic degradation of keratin” value in data set [4] was “bands were detected between the molecular weight marker of 37,000 and the molecular weight marker of 50,000”.

B7: Savinase (registered trade name) (SIGMA, P3111) (protein)
chain: AQSVPWGISRVQAPAAHNRGLTGSGVKVAVLDTGISTHPDLNIRGGASFVPGEPSTQDGNGHGTHVAGTIAALNNSIGVLGVAPSAELYAVKVLGASGSGSVSSIAQGLEWAGNNGMHVANLSLGSPSPSATLEQAVNSATSRGVLVVAASGNSGAGSISYPARYANAMAVGATDQNNNRASFSQYGAGLDIVAPGVNVQSTYPGSTYASLNGTSMATPHVAGAAALVKQKNPSWSNVQIRNHLKNTATSLGSTNLYGSGLVNAEAATR
B7: the “ΔA595 of the supernatant” value in data set [3] is recorded as “The absorbance of the samples containing Savinase (registered trade name), Alcalase (registered trade name), or proteinase K was increased compared with that of the samples containing BLP, LasA, or AhP”. For the same protein, the “Enzymatic degradation of keratin” value in data set [4] was “major bands were lost for the solutions containing Savinase (registered trade name), Alcalase (registered trade name), and proteinase K”.
